In patent US11820970B2, “High throughput protein-protein interaction screening in yeast liquid culture” (University of Washington, priority 2016, dated 2023):

Legend:
Assay in all cases: Batched (one-pot) yeast mating assay, barcode sequencing
Type in all cases: cell-based
[1] = target: T1, Bfl1 (Homo sapiens, UniProt Q16548); conditions: vs Bfl1
T1 sequence (Q16548 1-175): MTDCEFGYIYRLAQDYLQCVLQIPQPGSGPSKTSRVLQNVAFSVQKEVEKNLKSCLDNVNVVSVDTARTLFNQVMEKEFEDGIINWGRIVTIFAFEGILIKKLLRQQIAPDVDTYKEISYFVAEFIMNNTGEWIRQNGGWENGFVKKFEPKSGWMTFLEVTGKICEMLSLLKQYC
Description: (§1) For a many-to-many (also see Example 6) batched mating assay, multiple haploid yeast strains of each mating type are combined in a fresh 3 mL YPD culture. The recombinant MATa yeast strains are added in equal concentrations for a total density of 100 cells/μL and the recombinant MATalpha yeast strains are added in equal concentrations for a total density of 600 cells/μL. After 6 hours of growth, hygromycin is added at 100 ng/μL and β-estradiol (PE) is added at 200 ng/μL. 20 hours after the initial culture inoculation, 1 mL of cells are pelleted. 2 μL of cells are removed from the pellet, lysed with 0.2% SDS, spun down to remove all cellular debris, and diluted in water. The lysate is then used as a template for a PCR with standard primers containing overhangs for next generation sequencing and the PCR product, expected to be 650 bases, is purified from a gel slice. Paired-end next generation sequencing is then performed. The frequency that a particular pair of barcodes is observed relative to the total number of reads provides a relative measure for the number of matings that were caused by the SAP pair associated with those two particular barcodes.
(§2) LIBRARY MATING ASSAYS: For library mating assays in which each isogenic strain was constructed individually and the barcode associated with each synthetic adhesion protein was determined with Sanger sequencing, one or both of the isogenic haploid strains from a one-to-one mating were replaced with a library of strains, all of the same mating type, displaying unique barcoded synthetic adhesion proteins. Each haploid strain in the library is individually grown to saturation, evaluated for surface expression strength as described previously, and mixed in equal volumes. 2.5 μL, if a MATa library, or 5 μL, if a MATalpha library, were then added to a mating as before. Following a 17 hour incubation, 100 μL were added to 50 mL of YPD with […] hygromycin and 100 nM β-estradiol (many-to-many matings only). After growing to saturation, cells were harvested by centrifugation, and lysed by heating to 70° C. for 5 min in 200 mM LiOAc and 1% SDS. Cellular debris was removed and incubated at 37° C. for 4 hours with 0.05 mg/mL RNase A. An ethanol precipitation was then performed to purify and concentrate the genomic DNA. A primary qPCR is performed to amplify the barcode region with standard adaptors and the PCR product is used as a template for a secondary qPCR to attach an index barcode and standard Illumina adaptors. This fragment is gel extracted, quantified with a Qubit and analyzed on a MiSeq next generation sequencer.
(§3) One-pot protein library characterization. A barcoding and recombination scheme was developed for the analysis of whole protein interaction networks in a single pot. Single MATa and MATα parent strain, yNGYSDa and yNGYSDα, were constructed and barcoded SAP cassettes were transformed into the strains. In addition to the knockout of Sag1 in both parent strains and complementary lysine and leucine markers, yNGYSDa contains a CRE recombinase expression cassette with an inducible promoter, pZ4. yNGYSDα constitutively expresses ZEV4, an activator of the pZ4 promoter with an estradiol binding domain for nuclear localization. SAP cassettes were assembled in one of two standardized vectors, pNGYSDa or pNGYSDα, for integration into the corresponding yeast parent strain. In addition to the surface expression cassette, each vector backbone contains a mating type specific florescent reporter cassette, a randomized ten-nucleotide barcode, a mating type specific primer binding site, and a lox recombination site. Upon mating, the addition of β-Estradiol (βE) induces CRE recombinase expression in diploid cells, consolidating the barcodes from each haploid chromosome so that next-generation sequencing can be used to count the frequency of interacting SAP pairs (FIG. 16A). […]

[2] = target: T2, BclW (Homo sapiens, UniProt Q92843); conditions: vs BclW
T2 sequence (Q92843 1-193): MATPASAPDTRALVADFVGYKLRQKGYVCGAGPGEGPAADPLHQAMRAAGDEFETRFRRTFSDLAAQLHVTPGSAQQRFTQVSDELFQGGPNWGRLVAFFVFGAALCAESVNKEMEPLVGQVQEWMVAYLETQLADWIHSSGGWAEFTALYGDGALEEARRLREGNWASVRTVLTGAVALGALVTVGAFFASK
Description: as §1, §2, §3

[3] = target: Bcl2 (Homo sapiens, UniProt P10415); conditions: vs Bcl2
Description: as §1, §2, §3

Chain of Bcl2 (P10415 whole entry, species assumed): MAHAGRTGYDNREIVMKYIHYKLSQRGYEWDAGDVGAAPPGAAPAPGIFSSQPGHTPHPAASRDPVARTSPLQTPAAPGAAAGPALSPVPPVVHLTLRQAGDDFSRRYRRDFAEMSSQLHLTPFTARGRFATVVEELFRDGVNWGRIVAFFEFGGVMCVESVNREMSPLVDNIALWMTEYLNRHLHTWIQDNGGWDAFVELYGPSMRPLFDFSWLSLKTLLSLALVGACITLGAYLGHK

Substance	binding in batched mating (interaction profile, in words) [1]	binding in batched mating (interaction profile, in words) [2]	binding in batched mating (interaction profile, in words) [3]
Bim: natural BH3 domain peptide binder of Bcl2 family proteins	nonspecifically	nonspecifically	nonspecifically
Noxa: natural BH3 domain peptide binder of Bcl2 family proteins (PAELEVECATQLRRFGDKLNFRQKLL)	high specificity		
Puma: natural BH3 domain peptide binder of Bcl2 family proteins (EEQWAREIGAQLRRMADDLNAQYERR)	nonspecifically	nonspecifically	nonspecifically
